Earlier results in article PMC3131494.

Molecular target: eNOS (UniProt P29474)
UniProt P29474, sequence (P29474 2-1203): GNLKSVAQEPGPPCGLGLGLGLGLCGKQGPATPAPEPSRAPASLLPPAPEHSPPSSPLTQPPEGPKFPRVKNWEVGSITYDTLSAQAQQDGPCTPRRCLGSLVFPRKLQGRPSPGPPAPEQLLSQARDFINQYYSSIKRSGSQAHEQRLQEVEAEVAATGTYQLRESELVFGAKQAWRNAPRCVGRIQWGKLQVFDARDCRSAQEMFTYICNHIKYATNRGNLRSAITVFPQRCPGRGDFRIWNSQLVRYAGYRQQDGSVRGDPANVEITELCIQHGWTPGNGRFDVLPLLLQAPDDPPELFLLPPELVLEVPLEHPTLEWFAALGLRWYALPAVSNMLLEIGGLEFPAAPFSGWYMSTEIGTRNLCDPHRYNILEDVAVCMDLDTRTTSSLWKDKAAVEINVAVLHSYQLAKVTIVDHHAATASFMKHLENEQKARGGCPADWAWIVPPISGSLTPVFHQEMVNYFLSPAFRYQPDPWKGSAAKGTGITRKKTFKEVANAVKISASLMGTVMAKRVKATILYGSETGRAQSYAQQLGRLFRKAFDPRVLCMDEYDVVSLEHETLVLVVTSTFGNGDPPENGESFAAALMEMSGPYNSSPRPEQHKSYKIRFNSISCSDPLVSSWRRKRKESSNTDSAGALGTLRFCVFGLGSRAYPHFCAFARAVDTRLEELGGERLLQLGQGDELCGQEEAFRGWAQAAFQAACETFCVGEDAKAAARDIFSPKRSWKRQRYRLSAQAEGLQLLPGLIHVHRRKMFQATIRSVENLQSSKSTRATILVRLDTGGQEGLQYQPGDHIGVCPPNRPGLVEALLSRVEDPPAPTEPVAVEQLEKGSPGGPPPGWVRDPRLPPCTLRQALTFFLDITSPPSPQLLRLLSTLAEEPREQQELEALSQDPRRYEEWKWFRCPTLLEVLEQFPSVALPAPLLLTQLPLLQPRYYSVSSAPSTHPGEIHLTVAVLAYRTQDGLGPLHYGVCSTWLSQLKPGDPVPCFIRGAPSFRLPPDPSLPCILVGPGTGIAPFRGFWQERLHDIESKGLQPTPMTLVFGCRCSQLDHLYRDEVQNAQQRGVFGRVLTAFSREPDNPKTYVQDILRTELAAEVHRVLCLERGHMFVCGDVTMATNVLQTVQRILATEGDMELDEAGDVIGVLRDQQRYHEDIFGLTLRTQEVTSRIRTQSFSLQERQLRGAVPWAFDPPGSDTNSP

Substance: dynamin (from UniProt P50570)
- Kd: 30 nM
